Measurements from a protein production outcome set (Wang et al. 2014).

Test: label from the status in PepcDB records
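Note: failed if final PepcDB status was selected cloned or expressed and not failed if soluble or beyond.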

| Sequence | protein production |
| --- | --- |
| MSRMMPARVRSEGIALYAKGFLNDPIETDFKLTAEIDGEEVSYDLDGAQDSCTCAVFQQNHRYCKHIAAIEEYLKNQDKGSQETKDKEIKGAERALFGENVAFLDAVNGETQLNFNTDQYSIEVQIEDNSQLYDYFSMDYFLYFDLKLRSKNLGRSYVIKDIPYFLRALKNYSQYSLGSLHYIDLFFDNFDEASQEFLTFLLKIDSKSDEALTKSLYIKNGRYLNIPFLFLEEAMDLVSALENYQLQITGRTVNYFTFIALDNDSEIFKFKVESQQDYIELKLYSEDYHNFYDYSLLYANNVFYKLNQEQRRLLLVLDKQFAKKSQIKFSYADKDKLAQALQQLSTLGEIEAPDHFVVRPFDAKFTFDLLEDQTISLAMTFDYGSFSIDSFHDLETLEFSRDLRKEQKIFALMERLQFAKAFNSSLNIPENLSEHFFLKILPAFQKLGQIELSPTLRNMRMDEVPEIHIDSQGGLLDISFDIPQVEDGEFANVIAKLQENAEFYISESGKFYHFNEKFDRLKAALNELDDQFVIQGSSLHVNINRSFQISKIFENIGGASFSEKFKSLYQHLTHPEEFPYEKPEHIKASLRSYQETGVRWMSMLSHYNLGGILADDMGLGKTVQAITFILSNLKKDESVLITAPASLTYNWASEFEKFTDEIDFAVIDGTKAERSKEIQEKHQIYITSYGSFLKDFEDYQDKKLNYLLLDEAQVVKNYSSKTNKSLSALNVEHTFALSGTPLENRIEEIWAIFQVVMPGFLPKREKFNKMEPSVISRLIQPFIMRRKKEDVLEELPEKMEITVYNQLADDQKVIYLAQLELMQKQVLEMDSAALSRSRIEILAGITRLRQICNTPALFMDDYKGSSGKLERLRELLAQIKDSGHRPLIFSQFTKVFPHIEKLMEEQEMTAYKLTGSTPIKDRLSMVQAFNAGSRDAFLVSLKAGGVGLNLTSADVVILVDLWWNPAVEEQAIARAHRMGQKNTVEVIRLITKGTIEEKIMEIQERKKDLIANVLEGDTVDKVLSEAEIREILGV | failed |
| MSEPVQLRQHGNAAVAMPLDALLAARTVWRAGQGRATVNGGESTGHAALDALLPDGGWPRRALTELLLPAHGIGEIALLLPTLARMTARGSRVVLVAPPFIPYAPAWQAGGVVLEHLEVVQAEPRAALWAFEQCLRSGACAAVLGWPQTGDARALRRLQVAADSGNCCAFALRDRRHAVNASPAALRLEFLPERDAWQVRKCRGGQVPSQPLRLAH | failed |
| MKFRRHTKAIRSLAGSLISHASAFAPALFAAIIAAIVVWVATNWRLERSLADERSVVAGELATISSRLQTNLNSNVKLLQGLAAGIAVDPAMGQNRFSKLAAQILQPDSQLRSFAAAPDMVVQWVYPETGNEKAIGLDYRKNEKQRAAAMLARNTHNIVLTGPVELVQGGTAFVVRCPVYIDDGNSQIFWGLLSGIIDIPRLYRDSGLGSTDLEIAISTTPEPNSPKQVFFGGLETFEKKPVVASVDMTYGRWSLAALPRHGWGQNNGIGTFELYASLLALCVVAPIVWVGFLTKSRQKTIEKLRLHKSKLVRARQRLEHLSLHDALTGLPNRRFVDQMISQPPRPDPQDRLILIHIDLDRFKEINDTKGHAGGDMVLQTTASRLADLTGPNDVAARIGGDEFVFASWSTDPEPKAAELARQIVDALQQTIFIDGAGYVVGASVGVAWETESARDRDLGQLLLNADLALYEAKKAGRGRAAVFTEELRSAAIHAKELADEFNQALERDELVAFFQPQFNANTLDIAGVEALARWDHPRKGLLGPNAFLDAAEKLGRSGDMDRLILQKALFELTRWDGLGMHIPRVSVNISARRLAQANLLAELSALPAAKDRLCFELLETISFDELQPALNEVIPAIKALGIEIEIDDFGTEHASIVSLLRFEPRRLKIDREIIKPIIASPSQRRLVSSIIEIGRSQNIDIVAEGVETMEHAKILKDLGCHLLQGYALARPMSSDQLIEFCRMKGTGTAKASR | failed |
| MKVIEVTHPIQSNQFITENVAMAFGFFDGMHRGHDKVFQVLDEKAKEHQLKKAVMTFDPHPSVVLNPERKRTTYLTPLSDKLEMIAEHGIDYCIVINFSSRFANVTSDDFIKNYIINNHVKEVIAGFDFTFGKFGKGNMTVLQESKAFNTTIVGKQEMDSEKISTTAIRQALTDGHLQKANDELGYIYRIKGTVVQGEKRGRTIGFPTANVQPSDDYVLPKKGVYAVSMEIGPESKLHRGVANVGVKPTFHDPTRAELVIEVNIFDFNENIYGERVTVYWHHFLRPEVKFDGIDPLVKQMNEDKAQAKHLLSIDFDDDISYNI | failed |
| MIKLIYKPLWLILLIFFSLKAIAEDHYPTAPSPFYYVSDYTKTLNQQEWRTLEDALINNRSKTSSQIIVVMIPSTDGEEIARYAHNLFNKWGIGRVKHNENNGVLLLIAKNDRKLFIATGRGLESALPDAIAATIIRHHITPYFKQNLYAEGIASGLSAIMAAINGEFAAYDEYQSSNNQTLDGFFFFLFAAFVIFMMFRPTRNSQYISRSNTKPFQQILRHSRYHHDTSRDLYRGGSGDSFGGGSSGGGGAGGSWLEHHHHHH | failed |
| MPDIVNTEQAQAWNGPEGAHWARNQDRWNAVNEGFDEPLLDAAGITGEDRVLDLGCGSGQTTRRAALRAPRGHVLGLDLSGPMLAEARSRAEREGVANVSFAQGDAQVHPFGAGAFDAAVSRYGVMFFADPVAAFGNVGRALRPGGRLAFVCPADAALNGWVTAMASLREVLPVGDFGQPGLPGMFSLAAPDRIGDVLTAAGFAGIDVNQVQAHGTWGRDAEDAAEFLLGTGPGRHLMERADPTARARARGILTDHLRTHEAADGTVRLLSTSWLTTATRPAATA | failed |
| MTFRESVPFIVAIAATIPGILLRVVHPDISPLLMASLTGLAILGASFMLMWACEVAQMDIPQTLALAVVALIAVLPEYAVDMYFTWMAGQHPESNYAHYAIANMTGANRLLIGIGWSAIAILYALRFRKAVQLEEERRSELLFLALATAYALVIPLKGTLEWYDGVILVSLYVWYIRIASKRPCTDCEVEGPAEALAHLPRNTRRLTTLGLFLFAAGVILCDAELFSESLVASGKVLGINEFLLVQWLAPIASEAPEFIVAIMFATRGQASLALGSLISSKLNQWTLLVGMIPGVFAVSSGSINPPMPMDDHQMHELLLTAAQSLFAVVLLARMRLGLRGALVLLALFIGQFAAPLYEPYVENLLGIPHMPDGLHIVYSGLYIALALGMMLYRPGRLLQLREGLKV | failed |
| MTNTAAPATVSAGWADALLASFGQAGYAKAEPAILQPAEPFLDLSGEDIRKSLYLTTDAGGEELCLRPDLTIPVARDYLASSSAGKPAGFCYLGPVFRQRGGKRSEFLQAGIESFGRKDRAAADAEMLALALGATAAFGVAELDIRTGDVALFTALIDALDLYPVWRRRLIKDFNRKSDLAQDLEQLTLATATPRNEYEGVLAALAGSDRKAALALVTDLMSIAGASNVGGRSVAEIADRFLEQSTLKGGALPRDALDKIKRFLAISGSPGDALLQLRALAADAKLDIVAAIDEFEARIGFMAARGIDLSATRFSTSFGRGVDYYTGFEFELHRKDNGDEPLVAGGRYDGLLSQLGATAPIAAVGFSVWIEAFTDLAHPANSSAGSAT | failed |
| MLELFLKEEWTTEAKEILRPFGQKKLIGIQMGASNRSRQWFVERWIELAKRIIERDEEVVIVFVGSKNELEEISLVAQALPQDRVFISAGRLSLGAAAALIGELGLLFTPDTGPLHIAVALRVKTISLFAVANPKNSLPDYDQSLHRYIKVDRCCEPCVGKRCAYQKCMEAIGVDEVYEEYKKLQELEHHHHHH | not failed |
| TERMDKVGDALEEVLSKALSQRTITVGVYEAAKLLNVDPDNVVLCLLAADEDDDRDVALQIHFTLIQAFCCENDINILRVSNPGRLAELLLLETDAGPAASEGAEQPPDLHCVLVTNPHSSQWKDPALSQLICFCRESRYMDQWVPVINLPER | failed |
| MAQAQTQGQEEEQKKKILIVVTHGPEDLDRTYAPLFMASISASMEYETSVFFMIKGPKLLDKKWQEEERKKGGNPFIHFFDMAKENGVKMYVCVQSLKDMCHMKEDDVVEGIELVGGSTLIDLTLEADRTLFF | not failed |
| MQTPPRLVAIGGLSGSGKTTIAEALAAHVGAPPGARIVESDRIRKAMHGVPAETRLPDNAYRPDVSDRVYNEMTWRAGLILSEGGSVVADAVFDRPADRERIEKAARDRGIPFFGFWLEADPLVLWQRVSERKGGPSDATVDILSRQLQRKAGLEHHHHHH | failed |
| MLGGIEAGGTKFVCAVGREDGTIIDRIEFPTKMPDETIEKVIQYFSQFSLQAIGIGSFGPVDNDKTSQTYGTITATPKAGWRHYPFLQTVKNEMKIPVGFSTDVNAAALGEFLFGEAKGLDSCLYITIGTGIGAGAIVEGRLLQGLSHPEMGHIYIRRHPDDVYQGKCPYHGDCFEGLASGPAIEARWGKKAADLSDIAQVWELEGYYIAQALAQYILILAPKKIILGGGVMQQKQVFSYIYQYVPKIMNSYLDFSELSDDISDYIVPPRLGSNAGIIGTLVLAHQALQAEAASGEVRS | not failed |
| MVTLLVLRMISAITRKTPVKTLSKRSKTFNETAGGEGGGGAIKLITINVHIRYSFTMITISQYFHLVDELRNCTRKVWSTYPKELIELLRDSMVTH | failed |
| MKNIIPQALLTMPILSTGLQAQEKQPTPNLVFIMADQYRGDAIGCIGKEPVKTPHLDKLASEGINFTNAISSYPVSSPARGMLMTGMYPIGSKVTGNCNSETAPYGVELSQNARCWSDVLKDQGYNMGYIGKWHLDAPYKPYVDTYNNRGKVAWNEWCPPERRHGFDHWIAYGTYDYHLKPMYWNTTAPRDSFYYVNQWGPEYEASKAIEYINGQKDQKQPFALVVSMNPPHTGYELVPDRYKEIYKDLDVEALCKGRPDIPAKGTEMGDYFRNNIRNYYACITGVDENVGRIIEALKQNNLFDNTIVVFTSDHGICMGAHENAGKDIFYEESMRIPMILSWPDQIKPRKSDPLMIAFADLYPTLLSMMGFSKEIPETVQTFDLSNEVLTGKNKKDLVQPYYFVKFDNHATGYRGLRTDRYTYAVHATDGKIDNVILFDRTNDPHEMNNIASQQLKLTHTFNRQLKTWLEKTNDPFAQYIKLKLEHHHHHH | not failed |
| MSLSLLITSITINTSHLQGMLGFYRIIGFQFTASKVDKGSEVHRAVHNGVEFSLYSIQNPQRSQIPSLQLGFQITDLEKTVQELVKIPGAMCILDPTDMPDGKKAIVLDPDGHSIELCELEGHHHHHH | not failed |
| MYLKELSMMPGVSGDEGKVRDFIKSKIEGLVDNLYTDVLGNLIALKRGRDSSKKLLVSAHMDEVGFVVSKIEKDGKVSFLPVGGVDPRILPGKVVQVKNLKGVIGYRPIHLQRDEENTPPRFENLRIDFGFSSADEAKKYVSIGDYVSFVSDYIEKNGRAVGKAFDDRAGCSVLIDVLESGVSPAYDTYFVFTVQEETGLRGSAVVVEQLKPTCAIVVETTTAGDNPELEERKWATHLGDGPAITFYHRGYVIPKEIFQTIVDTAKNNDIPFQMKRRTAGGTDAGRYARTAYGVPAGVISTPARYIHSPNSIIDLNDYENTKKLIKVLVEEGKIVEVVS | not failed |
| MSTFGKLFRVTTYGESHCKSVGCIVDGVPPGMSLTEADIQPQLTRRRPGQSKLSTPRDEKDRVEIQSGTEFGKTLGTPIAMMIKNEDQRPHDYSDMDKFPRPSHADFTYSEKYGIKASSGGGRASARETIGRVASGAIAEKFLAQNSNVEIVAFVTQIGEIKMNRDSFDPEFQHLLNTITREKVDSMGPIRCPDASVAGLMVKEIEKYRGNKDSIGGVVTCVVRNLPTGLGEPCFDKLEAMLAHAMLSIPASKGFEIGSGFQGVSVPGSKHNDPFYFEKETNRLRTKTNNSGGVQGGISNGENIYFSVPFKSVATISQEQKTATYDGEEGILAAKGRHDPAVTPRAIPIVEAMTALVLADALLIQKARDFSRSVVH | not failed |
| MGAGQTPHPQLIWPALLKQQGCNELLPLRTNDDWQRFCADSKHLLQYGDKLVDSNFHCFVLEEDAHWHPAAPLPPEGLNDLIRAHCATLGHCCTSKMHLHSVMDAIDFLNALEG | not failed |
| MGDEHSLIPKQIGVVPSAGFLNVEVFERPCPEPNIQPWDIPYVHYPKPKTYSSSNGEIFSVKDRRANVSTIFETLDKVYNLDWLSSASKNECTSAVGLKWMLNQAEILARYKPLINTSLLIPDLKQVQEMTSKALAYFNTTRHIFLYYEDVVKNRTKLDDVQEFLKVPKLDLKSRQVKIHHGPLSQHVQNWEEVQKTLKGTGFENFLLEDYRR | failed |
